Results: the RNAGym collection of RNA variant scans (doi:10.7554/elife.80360)

B1: HDV Ribozyme (parent)
chain: GGCCGGCAUGGUCCCAGCCUCCUCGCUGGCGCCGGCUGGGCAACAUUCCGAGGGGACCGUCCCCUCGGUAAUGGCGAAUGGGACCCA

Variants of: B1
Experiment: self-cleavage, relative activity (ratio to wild type); higher = more cleavage; co-transcriptional

Row | Variant | self-cleavage
1 | U23G A77C | 0.172
2 | C14G C33U | 0.32
3 | C85G C86U | 0.858
4 | U27C G80C | 0.101
5 | C36G G38C | 0.208
6 | A16C G50A | 0.525
7 | C62A U72G | 0.617
8 | U12A G28U | 0.181
9 | A8G G50U | 0.984
10 | U69C A77U | 0.598
11 | G76C G80A | 0.394
12 | C18A G34C | 0.136
13 | G1C A8C | 0
14 | G31C C32U | 0.0723
15 | C14U C58U | 0.991
16 | U12C G35A | 0.0723
17 | C15G C26A | 0.332
18 | U27A G82A | 0.849
19 | G81C C84G | 0.256
20 | C21G C24U | 0
21 | C30G C33G | 0.115
22 | C30A C85U | 0.554
23 | C30A C85A | 0.295
24 | G10C G35A | 0.525

Row | Variant | self-cleavage
25 | G25C G35C | 0.115
26 | G17A G31U | 0.102
27 | G25C | 0.0909
28 | G25U C64G | 0.154
29 | C64A A77C | 0.344
30 | C4G U79A | 0.0536
31 | C26A C64A | 1.02
32 | C26U G29C | 0.0959
33 | G2C C13A | 0.0707
34 | G1A G2U | 0.852
35 | G29U G73A | 0.0898
36 | C44G C86G | 0.499
37 | U20A A78G | 0
38 | C24U C84A | 0.543
39 | G6C G81C | 0.185
40 | U12C U20G | 0.0831
41 | C3G U37G | 0.123
42 | C13A G76U | 0.317
43 | C22U G59A | 0.675
44 | C13A G80A | 0.106
45 | C44A C84A | 0.541
46 | C19G U20A | 0.0314
47 | C14G A77G | 0.415
48 | C49U C57G | 1.19

Row | Variant | self-cleavage
49 | G28A U60G | 0.0386
50 | C36U C84G | 0.324
51 | C57U U79G | 0.73
52 | C14A U79G | 0.575
53 | A78C C84G | 0.11
54 | U9G G10U | 0.987
55 | G54U G59C | 1.03
56 | C36G C62G | 0.142
57 | A42C G73U | 0.0791
58 | U27G C48G | 0.923
59 | G5A G6U | 0.0923
60 | U20G G39C | 0.175
61 | G17C U37G | 0
62 | G59C C63G | 0.909
63 | G50A A56U | 1.06
64 | G11C G76A | 0.312
65 | G28C G34C | 0.156
66 | U27A G53U | 0.798
67 | U27A G53A | 0.646
68 | A42G G54C | 0.614
69 | G40U G76U | 0.795
70 | G2U A83U | 0.0536
71 | G28U G50C | 0.212
72 | U37G U46A | 0

Row | Variant | self-cleavage
73 | U37G U46G | 0.332
74 | C26G G54C | 0.782
75 | G1U C62A | 0.248
76 | C36G G55U | 0.032
77 | G54U G81U | 0.349
78 | C32A C57G | 0.389
79 | C33G C75U | 0.151
80 | C26A C32A | 0.216
81 | G11A C26U | 1.12
82 | G54A G55A | 1.29
83 | U20A U65A | 0.0504
84 | C14U G53A | 1.11
85 | G1A C30G | 0
86 | G38C U46A | 0.101
87 | G5C G73A | 0.0554
88 | G34U C44G | 0.173
89 | C7U C75U | 0.0978
90 | G1A C84G | 0.0978
91 | C4U A8C | 0.443
92 | C32U G82C | 0.253
93 | G40U U69A | 0.623
94 | C24A G38C | 0.199
95 | G1A C64U | 0.101
96 | C33G C86G | 0.151

Row | Variant | self-cleavage
97 | C62U C84A | 1.14
98 | G11C G82C | 0.287
99 | C21A C22A | 0.0898
100 | U79C G81C | 0.189
101 | G5C C48A | 0.0875
102 | C49U G73U | 0.509
103 | A42C C61G | 0.269
104 | C4U G82A | 0.0959
105 | C13A U72C | 0.0573
106 | U20C G74A | 0.125
107 | U27G G73U | 0.0723
108 | C3A A42G | 0.0615
109 | C13A G54A | 0.117
110 | A43C G59U | 0.639
111 | C30A C33G | 0.128
112 | U23C U72A | 0.776
113 | U47G A83G | 0.8
114 | A45G A77C | 0.18
115 | U72A G73A | 0.617
116 | G40C G59U | 0.326
117 | G35U G67U | 0.391
118 | U47A G52U | 0.845
119 | G28A C63A | 0.128
120 | U12A C61U | 0.469

Row | Variant | self-cleavage
121 | C33U G59A | 0.897
122 | C14A A87G | 0.659
123 | G40A U79C | 0.41
124 | C22G A83U | 0.0462
125 | G31C G81U | 0.086
126 | C21G A77G | 0.0386
127 | U27C G67A | 0.886
128 | G53C U60A | 1.15
129 | C15A U46C | 0.653
130 | C44U A71C | 0.851
131 | A43C C66A | 0.302
132 | G2A C21A | 0.0158
133 | G34A U60G | 0.237
134 | A45U C75A | 0.277
135 | G5U C13G | 0.0978
136 | G40C U72C | 0.174
137 | C61G C63U | 1.02
138 | U12A A87G | 0.115
139 | U37A U65C | 0.225
140 | C63G G76A | 0.974
141 | C19G U23G | 0.0811
142 | A16G A77U | 0.266
143 | C19G C24A | 0.115
144 | G6A C49U | 0.58

Row | Variant | self-cleavage
145 | U20G C32U | 0.0519
146 | C19A C21G | 0.166
147 | U79C C84U | 0.332
148 | C3U G29U | 0.0723
149 | G59C A78G | 0.778
150 | C22G G38C | 0.391
151 | G29C C86A | 0.0519
152 | U47G A78C | 0.185
153 | G59A C63A | 1.07
154 | G34U A70C | 0.17
155 | G1A C26A | 0.119
156 | U37A A71G | 0.128
157 | G5C A70C | 0.158
158 | C32G G53C | 0.213
159 | C26G G68C | 1.07
160 | U65G C86G | 0.752
161 | G1A A83G | 0.219
162 | C14U U60A | 1.23
163 | C14U U60C | 1.11
164 | C14G C85A | 0.166
165 | U37C A70G | 1.23
166 | G29C G53U | 0.0723
167 | G2A G82C | 0.0639
